# Measurements reported in PMC10410066.
# Target: inhibitor of nuclear factor kappa B kinase subunit beta (IKBKB), FLAG-tagged (UniProt O14920)
# Assay: TR-FRET protein-protein interaction assay (2B7-Tb/anti-FLAG-D2)
# Details: peak of the lysate titration curve (mutant peak at about 3 ug/well, WT peak at about 5 ug/well); HEK293T lysates; parent: est. 0.30; read off a plot
substance,measurement,value
N571 Q55 HTT (N-terminal huntingtin fragment 1-571 with 55 glutamines) S13A; S16A,response (Fluorescence Ratio (665/615)),0.26
